T1: biotin labeled human recombinant Sclerostin (human, UniProt Q9BQB4 24-213)
T1 construct: also called human Sclerostin; huSOST
T1 sequence (looked up): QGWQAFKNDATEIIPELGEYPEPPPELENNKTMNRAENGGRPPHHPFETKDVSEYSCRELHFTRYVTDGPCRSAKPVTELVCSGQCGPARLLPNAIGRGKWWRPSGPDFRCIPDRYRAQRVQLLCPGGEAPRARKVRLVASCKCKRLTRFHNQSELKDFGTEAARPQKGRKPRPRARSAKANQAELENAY

B1: P7068 (bispecific antibody, human IgG2, lambda)
heavy: SGGSCPAYTEFLCKDSDRCFPSEWRCDGEMDCVDGSDELHCAYHTCAPNQFRCNSYDKCVPAHWVCDGVLDCLDSSDETNCSAPASEPPGSLSQVQLVESGGGVVQPGRSLRLSCAASGFTFSRYDMHWVRQAPGKGLEWVAIIFYDGSNKYYADPVKGRFTISRDNSKNTLYLQMNSLRAEDTAVYYCATLAAAFDYWGQGTLVTVSSASTKGPSVFPLAPCSRSTSESTAALGCLVKDYFPEPVTVSWNSGALTSGVHTFPAVLQSSGLYSLSSVVTVPSSNFGTQTYTCNVDHKPSNTKVDKTVERKCCVECPPCPAPPVAGPSVFLFPPKPKDTLMISRTPEVTCVVVDVSHEDPEVQFNWYVDGVEVHNAKTKPREEQFNSTFRVVSVLTVVHQDWLNGKEYKCKVSNKGLPAPIEKTISKTKGQPREPQVYTLPPSREEMTKNQVSLTCLVKGFYPSDIAVEWESNGQPENNYKTTPPMLDSDGSFFLYSKLTVDKSRWQQGNVFSCSVMHEALHNHYTQKSLSLSPGK
light: YVLTQPPSVSVAPGQTARITCGGNNIGSKSVHWYQQKPGQAPVLVVYDDSDRPSEIPERFSGSNSGNTATLTISRVEAGDEADYYCQVWDSSSDHVVFGGGTRLTVLGQPKAAPSVTLFPPSSEELQANKATLVCLISDFYPGAVTVAWKADSSPVKAGVETTTPSKQSNNKYAASSYLSLTPEQWKSHRSYSCQVTHEGSTVEKTVAPTECS
notes: also called P7011; Ab-Avimer-1 (P7068A)
B2: P7070 (bispecific antibody, human IgG2, lambda)
heavy: QVQLVESGGGVVQPGRSLRLSCAASGFTFSRYDMHWVRQAPGKGLEWVAIIFYDGSNKYYADPVKGRFTISRDNSKNTLYLQMNSLRAEDTAVYYCATLAAAFDYWGQGTLVTVSSASTKGPSVFPLAPCSRSTSESTAALGCLVKDYFPEPVTVSWNSGALTSGVHTFPAVLQSSGLYSLSSVVTVPSSNFGTQTYTCNVDHKPSNTKVDKTVERKCCVECPPCPAPPVAGPSVFLFPPKPKDTLMISRTPEVTCVVVDVSHEDPEVQFNWYVDGVEVHNAKTKPREEQFNSTFRVVSVLTVVHQDWLNGKEYKCKVSNKGLPAPIEKTISKTKGQPREPQVYTLPPSREEMTKNQVSLTCLVKGFYPSDIAVEWESNGQPENNYKTTPPMLDSDGSFFLYSKLTVDKSRWQQGNVFSCSVMHEALHNHYTQKSLSLSPGKSSGGSWCPPNHFMCNSYDKCVPAHWFCDGVLDCLDSSDETNCSAPASEPPGSLCPAYTEFLCKDSDRCFPSEWRCDGEMDCVDGSDELHCAYHTSLQ
light: B1 light
notes: also called P6992; Ab-Avimer-3 (P7070A)
B3: P7078 (bispecific antibody, human IgG2, lambda)
heavy: SGGSWCPPNHFMCNSYDKCVPAHWFCDGVLDCLDSSDETNCSAPASEPPGSLCPAYTEFLCKDSDRCFPSEWRCDGEMDCVDGSDELHCAYHTSQVQLVESGGGVVQPGRSLRLSCAASGFTFSRYDMHWVRQAPGKGLEWVAIIFYDGSNKYYADPVKGRFTISRDNSKNTLYLQMNSLRAEDTAVYYCATLAAAFDYWGQGTLVTVSSASTKGPSVFPLAPCSRSTSESTAALGCLVKDYFPEPVTVSWNSGALTSGVHTFPAVLQSSGLYSLSSVVTVPSSNFGTQTYTCNVDHKPSNTKVDKTVERKCCVECPPCPAPPVAGPSVFLFPPKPKDTLMISRTPEVTCVVVDVSHEDPEVQFNWYVDGVEVHNAKTKPREEQFNSTFRVVSVLTVVHQDWLNGKEYKCKVSNKGLPAPIEKTISKTKGQPREPQVYTLPPSREEMTKNQVSLTCLVKGFYPSDIAVEWESNGQPENNYKTTPPMLDSDGSFFLYSKLTVDKSRWQQGNVFSCSVMHEALHNHYTQKSLSLSPGK
light: B1 light
notes: also called P6886; Ab-Avimer-5 (P7078A)
B4: P7656 (bispecific antibody, human IgG2, lambda)
heavy: QVQLVESGGGVVQPGRSLRLSCAASGFTFSRYDMHWVRQAPGKGLEWVAIIFYDGSNKYYADPVKGRFTISRDNSKNTLYLQMNSLRAEDTAVYYCATLAAAFDYWGQGTLVTVSSASTKGPSVFPLAPCSRSTSESTAALGCLVKDYFPEPVTVSWNSGALTSGVHTFPAVLQSSGLYSLSSVVTVPSSNFGTQTYTCNVDHKPSNTKVDKTVERKCCVECPPCPAPPVAGPSVFLFPPKPKDTLMISRTPEVTCVVVDVSHEDPEVQFNWYVDGVEVHNAKTKPREEQFNSTFRVVSVLTVVHQDWLNGKEYKCKVSNKGLPAPIEKTISKTKGQPREPQVYTLPPSREEMTKNQVSLTCLVKGFYPSDIAVEWESNGQPENNYKTTPPMLDSDGSFFLYSKLTVDKSRWQQGNVFSCSVMHEALHNHYTQKSLSLSPGKSSGGSCAPNQFRCNSYDKCVPAHWVCDGVLDCLDSSDETNCGGGGSGGGGSCPAYTEFLCKDSDRCFPSEWRCDGEMDCVDGSDELHC
light: B1 light
notes: also called C140166
B5: P7069 (bispecific antibody, human IgG2, lambda)
heavy: QVQLVESGGGVVQPGRSLRLSCAASGFTFSRYDMHWVRQAPGKGLEWVAIIFYDGSNKYYADPVKGRFTISRDNSKNTLYLQMNSLRAEDTAVYYCATLAAAFDYWGQGTLVTVSSASTKGPSVFPLAPCSRSTSESTAALGCLVKDYFPEPVTVSWNSGALTSGVHTFPAVLQSSGLYSLSSVVTVPSSNFGTQTYTCNVDHKPSNTKVDKTVERKCCVECPPCPAPPVAGPSVFLFPPKPKDTLMISRTPEVTCVVVDVSHEDPEVQFNWYVDGVEVHNAKTKPREEQFNSTFRVVSVLTVVHQDWLNGKEYKCKVSNKGLPAPIEKTISKTKGQPREPQVYTLPPSREEMTKNQVSLTCLVKGFYPSDIAVEWESNGQPENNYKTTPPMLDSDGSFFLYSKLTVDKSRWQQGNVFSCSVMHEALHNHYTQKSLSLSPGKSSGGSCPAYTEFLCKDSDRCFPSEWRCDGEMDCVDGSDELHCAYHTCAPNQFRCNSYDKCVPAHWVCDGVLDCLDSSDETNCSAPASEPPGSLSLQ
light: B1 light
notes: also called P6991; Ab-Avimer-2 (P7069A)
B6: P7649 (bispecific antibody, human IgG2, lambda)
heavy: QVQLVESGGGVVQPGRSLRLSCAASGFTFSRYDMHWVRQAPGKGLEWVAIIFYDGSNKYYADPVKGRFTISRDNSKNTLYLQMNSLRAEDTAVYYCATLAAAFDYWGQGTLVTVSSASTKGPSVFPLAPCSRSTSESTAALGCLVKDYFPEPVTVSWNSGALTSGVHTFPAVLQSSGLYSLSSVVTVPSSNFGTQTYTCNVDHKPSNTKVDKTVERKCCVECPPCPAPPVAGPSVFLFPPKPKDTLMISRTPEVTCVVVDVSHEDPEVQFNWYVDGVEVHNAKTKPREEQFNSTFRVVSVLTVVHQDWLNGKEYKCKVSNKGLPAPIEKTISKTKGQPREPQVYTLPPSREEMTKNQVSLTCLVKGFYPSDIAVEWESNGQPENNYKTTPPMLDSDGSFFLYSKLTVDKSRWQQGNVFSCSVMHEALHNHYTQKSLSLSPGSSGGSCAPNQFRCNSYDKCVPAHWVCDGVLDCLDSSDETNCSAPASEPPGSLCPAYTEFLCKDSDRCFPSEWRCDGEMDCVDGSDELHCAYHTSLQ
light: B1 light
notes: also called C140159
B7: P7079 (bispecific antibody, human IgG2, lambda)
heavy: QVQLVESGGGVVQPGRSLRLSCAASGFTFSRYDMHWVRQAPGKGLEWVAIIFYDGSNKYYADPVKGRFTISRDNSKNTLYLQMNSLRAEDTAVYYCATLAAAFDYWGQGTLVTVSSASTKGPSVFPLAPCSRSTSESTAALGCLVKDYFPEPVTVSWNSGALTSGVHTFPAVLQSSGLYSLSSVVTVPSSNFGTQTYTCNVDHKPSNTKVDKTVERKCCVECPPCPAPPVAGPSVFLFPPKPKDTLMISRTPEVTCVVVDVSHEDPEVQFNWYVDGVEVHNAKTKPREEQFNSTFRVVSVLTVVHQDWLNGKEYKCKVSNKGLPAPIEKTISKTKGQPREPQVYTLPPSREEMTKNQVSLTCLVKGFYPSDIAVEWESNGQPENNYKTTPPMLDSDGSFFLYSKLTVDKSRWQQGNVFSCSVMHEALHNHYTQKSLSLSPGKSSGGSCAPNQFRCNSYDKCVPAHWVCDGVLDCLDSSDETNCSAPASEPPGSLCPAYTEFLCKDSDRCFPSEWRCDGEMDCVDGSDELHCAYHTSLQ
light: B1 light
notes: also called P6887; Ab-Avimer-6 (P7079A)
B8: P7651 (bispecific antibody, human IgG2, lambda)
heavy: B7 heavy with K504A
light: B1 light
notes: also called C140161
B9: P7654 (bispecific antibody, human IgG2, lambda)
heavy: B7 heavy with R454A, K504A, R508A, R515A
light: B1 light
notes: also called C140164
B10: P7653 (bispecific antibody, human IgG2, lambda)
heavy: B1 heavy with K14A, R18A, R25A, R52A, K58A
light: B1 light
notes: also called C140163
B11: P7650 (bispecific antibody, human IgG2, lambda)
heavy: B6 heavy with A448G, P449R, N450D, Q451H, N455R, V466L, N481Y
light: B1 light
notes: also called C140160
B12: P7077 (bispecific antibody, human IgG2, lambda)
heavy: B7 heavy with A449G, P450R, N451D, Q452H, N456R, V467L, N482Y
light: B1 light
notes: also called P6888; Ab-Avimer-4 (P7077A)
B13: P7080 (bispecific antibody, human IgG2, lambda)
light: YVLTQPPSVSVAPGQTARITCGGNNIGSKSVHWYQQKPGQAPVLVVYDDSDRPSEIPERFSGSNSGNTATLTISRVEAGDEADYYCQVWDSSSDHVVFGGGTRLTVLGQPKAAPSVTLFPPSSEELQANKATLVCLISDFYPGAVTVAWKADSSPVKAGVETTTPSKQSNNKYAASSYLSLTPEQWKSHRSYSCQVTHEGSTVEKTVAPTECSSSGGSCPAYTEFLCKDSDRCFPSEWRCDGEMDCVDGSDELHCAYHTCAPNQFRCNSYDKCVPAHWVCDGVLDCLDSSDETNCSAPASEPPGSLSLQ
heavy: QVQLVESGGGVVQPGRSLRLSCAASGFTFSRYDMHWVRQAPGKGLEWVAIIFYDGSNKYYADPVKGRFTISRDNSKNTLYLQMNSLRAEDTAVYYCATLAAAFDYWGQGTLVTVSSASTKGPSVFPLAPCSRSTSESTAALGCLVKDYFPEPVTVSWNSGALTSGVHTFPAVLQSSGLYSLSSVVTVPSSNFGTQTYTCNVDHKPSNTKVDKTVERKCCVECPPCPAPPVAGPSVFLFPPKPKDTLMISRTPEVTCVVVDVSHEDPEVQFNWYVDGVEVHNAKTKPREEQFNSTFRVVSVLTVVHQDWLNGKEYKCKVSNKGLPAPIEKTISKTKGQPREPQVYTLPPSREEMTKNQVSLTCLVKGFYPSDIAVEWESNGQPENNYKTTPPMLDSDGSFFLYSKLTVDKSRWQQGNVFSCSVMHEALHNHYTQKSLSLSPGK
notes: also called P7009; Ab-Avimer-7 (P7080A)
B14: P7652 (bispecific antibody, human IgG2, lambda)
light: B13 light with K228A
heavy: B13 heavy
notes: also called C140162

Where a chain is given by its changes, count along the chain named. Names and notes keep the numbering of the source.

The target in the assay is T1, biotin labeled human recombinant …. The assay can be described thus: AlphaScreen Sclerostin/LRP-6 inhibition. (Bead proximity is the source of the signal in Alpha formats.)
For B1, the binding result was “binds”.

Regarding B2, the binding result is given as “binds”.

As to B3, the binding result is “binds”.

As for B4, the binding result is recorded as “binds”.

Regarding B5, the binding result is “binds”.

With B6, the binding result is given as “binds”.

As for B7, the binding result is listed as “binds”.

B8: the binding result was “binds”.

With B9, the binding result was “binds”.

As for B10, the binding result is given as “binds”.

Take B11: the binding result is on record as “binds”.

For the molecule B12, the binding result was “binds”.

Take B13: the binding result is on record as “binds”.

For the molecule B14, the binding result is “binds”.

Source of the values: US9708375 (Amgen, dated 2017).
